Tests used:
[1] = target: T1, human IL-6 (human, UniProt P05231 30-212); assay: SPR (Biacore), purified antibody on Protein A chip, IL-6 flowed, 37 C
Procedure: Antibodies were captured on a Protein A chip (GE) by injecting 1:20 cell supernatant dilutions at 10 μL/min for 60 seconds. […] The sensor chip was regenerated by a 60 seconds injection of 10 mM Glycine pH 1.7 at the flow rate of 50 μL/min. […] For this setup, 1 μg/mL of purified antibody was injected over a Protein A chip at 10 μL/min for 25 seconds. […] The sensor chip was regenerated by a 60 seconds injection of 10 mM Glycine pH 1.7 at flow rate of 50 μL/min. Data analysis for supernatant and purified samples were performed using BIAevaluation software (GE). All sensorgrams were double reference subtracted and fit using a 1:1 Langmuir binding model.

[2] = target: T1, human IL-6; assay: SPR (Biacore), supernatant antibody on Protein A chip, IL-6 flowed, 37 C
[3] = target: T2, VEGF-A165 (UniProt P15692-4 27-191); assay: Biacore T200 SPR at 37 C, binder captured on Protein A chip, VEGF-A165 0.19 to 15 nM in five steps, 60 min dissociation, 1:1 Langmuir fit
T2 construct: analyte of the Biacore assays
T2 sequence (P15692 other isoform, or with tags, fused parts or gaps limits assumed): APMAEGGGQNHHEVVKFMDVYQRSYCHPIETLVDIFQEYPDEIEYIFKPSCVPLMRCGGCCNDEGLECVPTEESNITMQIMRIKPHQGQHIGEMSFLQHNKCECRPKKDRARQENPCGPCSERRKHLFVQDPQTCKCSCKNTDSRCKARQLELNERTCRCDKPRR
Procedure: FIGS. 14A-14F illustrate the results for a series of Biacore assays used to determine the affinity between Anti-VEGF agents and VEGF. Binding kinetics between molecules were measured using a Biacore T200 (GE Healthcare) at 37° C. in buffer HBS-EP+ containing 1 mg/mL BSA. […] The sensor chip surface was regenerated by 60 seconds injection of 10 mM Glycine, pH 1.7 at a flow rate of 50 μl/min. All sensorgrams were double reference subtracted and fit using a 1:1 Langmuir binding model.

T1 sequence (P05231 30-212 limits assumed): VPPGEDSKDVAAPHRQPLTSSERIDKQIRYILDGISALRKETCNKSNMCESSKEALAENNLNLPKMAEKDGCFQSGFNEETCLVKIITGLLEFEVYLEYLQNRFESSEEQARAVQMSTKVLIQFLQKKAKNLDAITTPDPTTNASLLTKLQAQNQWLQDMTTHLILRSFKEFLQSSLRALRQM

| Binder | Kd [1] [nM] | koff [1] [s⁻¹] | kon [1] [M⁻¹ s⁻¹] | Kd [2] [nM] | koff [2] [s⁻¹] | kon [2] [M⁻¹ s⁻¹] | Kd [3] [nM] | koff [3] [s⁻¹] | kon [3] [M⁻¹ s⁻¹] |
| --- | --- | --- | --- | --- | --- | --- | --- | --- | --- |
| anti-IL-6 antibody, heavy chain G66D / light chain M32L, M50D, N52S, M88Q (antibody, human IgG1, V domains shown, Human IgG1) VH: EVQLVESGGGLVQPGGSLRLSCAASGFTFSPFAMSWVRQAPGKGLEWVAKISPGGSWTYYSDTVTDRFTFSLDTSKSTAYLQMNSLRAEDTAVYYCARQLWGYYALDIWGQGTLVTVSS VL: DIQLTQSPSSLSASVGDRVTITCSASISVSYLYWYQQKPGKAPKLLIYDDSSLASGVPSRFSGSGSGTDFTLTISSLQPEDFATYYCQQWSGYPYTFGQGTKVEIK | 0.244 | 0.000412 | 1.69e+06 | 0.296 | 0.000483 | 1.63e+06 | – | – | – |
| anti-IL-6 antibody, heavy chain T63Q, G66D / light chain M32L, M50D, N52S, M88Q (antibody, human IgG1, V domains shown, Human IgG1) VH: EVQLVESGGGLVQPGGSLRLSCAASGFTFSPFAMSWVRQAPGKGLEWVAKISPGGSWTYYSDQVTDRFTFSLDTSKSTAYLQMNSLRAEDTAVYYCARQLWGYYALDIWGQGTLVTVSS VL: DIQLTQSPSSLSASVGDRVTITCSASISVSYLYWYQQKPGKAPKLLIYDDSSLASGVPSRFSGSGSGTDFTLTISSLQPEDFATYYCQQWSGYPYTFGQGTKVEIK | 0.201 | 0.000341 | 1.69e+06 | 0.259 | 0.000461 | 1.78e+06 | – | – | – |
| anti-IL-6 antibody, heavy chain S35H, G66D / light chain M32L, M50D, N52S, M88Q (antibody, human IgG1, V domains shown, Human IgG1) VH: EVQLVESGGGLVQPGGSLRLSCAASGFTFSPFAMHWVRQAPGKGLEWVAKISPGGSWTYYSDTVTDRFTFSLDTSKSTAYLQMNSLRAEDTAVYYCARQLWGYYALDIWGQGTLVTVSS VL: DIQLTQSPSSLSASVGDRVTITCSASISVSYLYWYQQKPGKAPKLLIYDDSSLASGVPSRFSGSGSGTDFTLTISSLQPEDFATYYCQQWSGYPYTFGQGTKVEIK | 0.212 | 0.000254 | 1.2e+06 | 0.166 | 0.000539 | 3.24e+06 | – | – | – |
| anti-IL-6 antibody, heavy chain T63E, G66D / light chain M32L, M50D, N52S, M88Q (antibody, human IgG1, V domains shown, Human IgG1) VH: EVQLVESGGGLVQPGGSLRLSCAASGFTFSPFAMSWVRQAPGKGLEWVAKISPGGSWTYYSDEVTDRFTFSLDTSKSTAYLQMNSLRAEDTAVYYCARQLWGYYALDIWGQGTLVTVSS VL: DIQLTQSPSSLSASVGDRVTITCSASISVSYLYWYQQKPGKAPKLLIYDDSSLASGVPSRFSGSGSGTDFTLTISSLQPEDFATYYCQQWSGYPYTFGQGTKVEIK | 0.198 | 0.000327 | 1.65e+06 | 0.242 | 0.000485 | 2e+06 | – | – | – |
| anti-IL-6 antibody, heavy chain T65Q, G66D / light chain M32L, M50D, N52S, M88Q (antibody, human IgG1, V domains shown, Human IgG1) VH: EVQLVESGGGLVQPGGSLRLSCAASGFTFSPFAMSWVRQAPGKGLEWVAKISPGGSWTYYSDTVQDRFTFSLDTSKSTAYLQMNSLRAEDTAVYYCARQLWGYYALDIWGQGTLVTVSS VL: DIQLTQSPSSLSASVGDRVTITCSASISVSYLYWYQQKPGKAPKLLIYDDSSLASGVPSRFSGSGSGTDFTLTISSLQPEDFATYYCQQWSGYPYTFGQGTKVEIK | 0.209 | 0.00038 | 1.82e+06 | 0.258 | 0.000562 | 2.18e+06 | – | – | – |
| anti-IL-6 antibody, heavy chain T63K, G66D / light chain M32L, M50D, N52S, M88Q (antibody, human IgG1, V domains shown, Human IgG1) VH: EVQLVESGGGLVQPGGSLRLSCAASGFTFSPFAMSWVRQAPGKGLEWVAKISPGGSWTYYSDKVTDRFTFSLDTSKSTAYLQMNSLRAEDTAVYYCARQLWGYYALDIWGQGTLVTVSS VL: DIQLTQSPSSLSASVGDRVTITCSASISVSYLYWYQQKPGKAPKLLIYDDSSLASGVPSRFSGSGSGTDFTLTISSLQPEDFATYYCQQWSGYPYTFGQGTKVEIK | 0.252 | 0.000401 | 1.59e+06 | 0.246 | 0.000529 | 2.15e+06 | – | – | – |
| VEGFR_variant_1-Anti-IL-6 (T94I) (other) fusion: SDTGRPFVEMYSEIPEIIHMTEGRELVIPCRVTSPNITVTLKKFPLDTLIPDGKRIIWDSRKGFIISNATYKEIGLLTCEATVNGHLYKTNYLIHRQTNTIIDVVLSPSHGIELSVGEKLVLNCTARTELNVGIDFNWEYPSSKHQHKKLVNRDLKTQSGSEMKKFLSTLTIDGVTRSDQGLYTCAASSGLMTKKNSTFVRVHEKGGGGSGGGGSEVQLVESGGGLVQPGGSLRLSCAASGFTFSPFAISWVRQAPGKGLEWVAKISPGGSWTYYSDTVTDRFTFSLDTSKSTAYLQMNSLRAEDTAVYYCARQLWGYYALDVWGQGTLVTVSSASTKGPSVFPLAPSSKSTSGGTAALGCLVKDYFPEPVTVSWNSGALTSGVHTFPAVLQSSGLYSLSSVVTVPSSSLGTQTYICNVNHKPSNTKVDKKVEPKSCDKTHTCPPCPAPEAAGAPSVFLFPPKPKDTLMISRTPEVTCVVVDVSHEDPEVKFNWYVDGVEVHNAKTKPREEQYNSTYRVVSVLTVLHQDWLNGKEYKCKVSNKALPAPIEKTISKAKGQPREPQVYTLPPSREEMTKNQVSLTCLVKGFYPSDIAVEWESNGQPENNYKTTPPVLDSDGSFFLYSKLTVDKSRWQQGNVFSCSVMHEALHNHYTQKSLSCSPGK light: DIQLTQSPSSLSASVGDRVTITCSASISVSYLYWYQQKPGKAPKLLIYDDSSLASGVPSRFSGSGSGTDFTLTISSLQPEDFATYYCQQWSGYPYTFGQGTKVEIKRTVAAPSVFIFPPSDEQLKSGTASVVCLLNNFYPREAKVQWKVDNALQSGNSQESVTEQDSKDSTYSLSSTLTLSKADYEKHKVYACEVTHQGLSSPVTKSFNRGEC | – | – | – | – | – | – | 0.0185 | 0.00199 | 1.08e+08 |
| VEGFR_variant_2-Anti-IL-6 (H95I) (other) fusion: SDTGRPFVEMYSEIPEIIHMTEGRELVIPCRVTSPNITVTLKKFPLDTLIPDGKRIIWDSRKGFIISNATYKEIGLLTCEATVNGHLYKTNYLTIRQTNTIIDVVLSPSHGIELSVGEKLVLNCTARTELNVGIDFNWEYPSSKHQHKKLVNRDLKTQSGSEMKKFLSTLTIDGVTRSDQGLYTCAASSGLMTKKNSTFVRVHEKGGGGSGGGGSEVQLVESGGGLVQPGGSLRLSCAASGFTFSPFAISWVRQAPGKGLEWVAKISPGGSWTYYSDTVTDRFTFSLDTSKSTAYLQMNSLRAEDTAVYYCARQLWGYYALDVWGQGTLVTVSSASTKGPSVFPLAPSSKSTSGGTAALGCLVKDYFPEPVTVSWNSGALTSGVHTFPAVLQSSGLYSLSSVVTVPSSSLGTQTYICNVNHKPSNTKVDKKVEPKSCDKTHTCPPCPAPEAAGAPSVFLFPPKPKDTLMISRTPEVTCVVVDVSHEDPEVKFNWYVDGVEVHNAKTKPREEQYNSTYRVVSVLTVLHQDWLNGKEYKCKVSNKALPAPIEKTISKAKGQPREPQVYTLPPSREEMTKNQVSLTCLVKGFYPSDIAVEWESNGQPENNYKTTPPVLDSDGSFFLYSKLTVDKSRWQQGNVFSCSVMHEALHNHYTQKSLSCSPGK light: DIQLTQSPSSLSASVGDRVTITCSASISVSYLYWYQQKPGKAPKLLIYDDSSLASGVPSRFSGSGSGTDFTLTISSLQPEDFATYYCQQWSGYPYTFGQGTKVEIKRTVAAPSVFIFPPSDEQLKSGTASVVCLLNNFYPREAKVQWKVDNALQSGNSQESVTEQDSKDSTYSLSSTLTLSKADYEKHKVYACEVTHQGLSSPVTKSFNRGEC | – | – | – | – | – | – | 0.0143 | 0.00164 | 1.15e+08 |

Reference: US20240209076A1 (KODIAK SCIENCES, published 2024)
